{
  "source": "paper PMC11109965",
  "about": "“Correction of non-random mutational biases along a linear bacterial chromosome by the mismatch repair endonuclease NucS” (Nucleic Acids Research, 2024)",
  "proteins": {"B1": {"name": "NucS from Streptomyces ambofaciens (NucSSam), N-terminal His-tagged (enzyme, Streptomyces ambofaciens ATCC23877, UniProt A0ABN4PBG3 1-223, looked up)", "chain": "MRLVIARCSVDYAGRLTAHLPSAPRLILVKADGSVSIHADDRAYKPLNWMSPPCTLKEGTGEEEGVWTVVNKAGEKLIITMEEILHDSSHELGVDPGLIKDGVEAHLQELLADRIETLGEGYTLIRREYMTAIGPVDILCRDAEGRTVAVEIKRRGEIDGVEQLTRYLELLNRDPHLAPVRGVFAAQEIKPQARVLATDRGIGCQVLDYNAMRGIEDDKLRLF", "notes": "223 amino acids; calculated molecular weight 24762.44 Da; Found as monomer and dimer in solution, the monomer prevailing; the monomeric fraction was used in the cleavage assays; also called EndoMS/NucS; His-tagged NucSSam; not shown: His-tag, N-terminal, kept"}, "B2": {"name": "β-clamp from Streptomyces ambofaciens (β-clampSam), N-terminal His-tagged (natural protein)", "chain": "MKIRVERDVLAEAVAWAARSLPARPPAPVLAGLLLKAEEGQLSLSSFDYEVSARVSVEAEVEEEGTVLVSGRLLADISRALPNRPVEISTDGVRATVVCGSSRFTLHTLPVEEYPALPQMPEATGTVPGEVFAAAVQQVAIAAGRDDTLPVLTGVRIEIEGDSVTLASTDRYRFAVREFLWKPENPEVSAVALVPAKTLQDTAKALTSGDQVILALAGSGAGEGLIGFEGAGRRTTTRLLEGDLPKYKTLFPTEFNSIAVIETAPFVEAVKRVALVAERNTPVRLSFEQGVLILEAGSSDDAQAVERVDAQLEGDDISIAFNPTFLLDGLSAIDSPVAQLSFTTSTKPALLSGKPAVDAEADEAYKYLIMPVRLSG"}},
  "key": {"[1]": {"target": "the molecule itself", "test": "SEC-MALS; fractions of the main gel filtration peak of NucSSam; molecular weights determined on the right side of the peaks because peak homogeneity was moderate"}, "[2]": {"target": "the molecule itself", "test": "SEC + SEC-MALS; purified His-tagged β-clampSam; gel filtration (single peak, about 97 kDa) and SEC-MALS (about 84 kDa)"}},
  "data": [
    {"protein": "B1", "values": [
      {"measurement": "stoichiometry N", "setting": "[1]", "result": 2}
    ]},
    {"protein": "B2", "values": [
      {"measurement": "stoichiometry N", "setting": "[2]", "result": 2}
    ]}
  ]
}
